The target of this experiment is mAb3F3 (mouse). In words: SPR; Biacore T200; antibodies injected for 60 s at 10 μl/min in the active flow cell; BSA conjugated peptide antigens flowed at 1.25 to 20 nM.

This is an account of results in PMC6701106.

Positions of bridges follow the written chain, without caps; N, C: chain ends. No end group written: not given here.

Regarding CGLRSFTRQARVVGGTDADEGEWPC (disulfide 1-25; also: conjugated to BSA) [BSA conjugated Mat-Loop (human Prss14/ST14 aa604-627 plus C-terminal cysteine, circular 25mer)], the Kd was determined as 5.33 nM, the koff was determined as 0.00342 s⁻¹ and the kon came out at 641000 M⁻¹ s⁻¹.

CGLRSFTRQARVVGGTDADEGEWP [Mat-Linear (human Prss14/ST14 aa604-627, linear 24mer)] showed a Kd of 406 nM, a koff of 0.0105 s⁻¹ and a kon of 25900 M⁻¹ s⁻¹.
